From article PMC2360737

Tests used:
[1] = biological target: p27 (human (endogenous in A2780)) (UniProt P46527); assay: co-IP; endogenous proteins in crude lysates of A2780 cells, untreated or treated with 0.6 uM DAP (up to 36 h; also after control or p21 siRNA); immunoprecipitated with anti-CDK4, anti-CDK2, anti-p21 or anti-p27 antibody, immunoblotted
[2] = biological target: p21 (human (endogenous in A2780)) (UniProt P38936); assay: as above
Chain of UniProt P38936 (P38936 whole entry): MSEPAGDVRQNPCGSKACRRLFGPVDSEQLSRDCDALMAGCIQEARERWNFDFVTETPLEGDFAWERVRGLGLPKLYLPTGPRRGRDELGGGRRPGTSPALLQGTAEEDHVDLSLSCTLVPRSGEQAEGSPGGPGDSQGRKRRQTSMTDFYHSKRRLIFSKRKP

Chain of cyclin E (P24864 whole entry): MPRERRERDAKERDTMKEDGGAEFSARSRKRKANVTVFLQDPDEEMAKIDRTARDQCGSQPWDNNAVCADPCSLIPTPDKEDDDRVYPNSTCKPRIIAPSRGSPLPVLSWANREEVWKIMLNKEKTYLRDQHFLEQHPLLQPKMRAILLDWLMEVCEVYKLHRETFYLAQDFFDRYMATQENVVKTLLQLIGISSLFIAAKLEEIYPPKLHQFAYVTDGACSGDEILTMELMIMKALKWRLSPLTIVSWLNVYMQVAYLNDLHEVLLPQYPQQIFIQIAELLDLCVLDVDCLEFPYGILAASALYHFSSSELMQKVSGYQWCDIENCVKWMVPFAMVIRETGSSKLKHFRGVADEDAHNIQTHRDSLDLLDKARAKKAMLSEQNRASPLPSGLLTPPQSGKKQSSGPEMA
Chain of UniProt P46527 (P46527 whole entry): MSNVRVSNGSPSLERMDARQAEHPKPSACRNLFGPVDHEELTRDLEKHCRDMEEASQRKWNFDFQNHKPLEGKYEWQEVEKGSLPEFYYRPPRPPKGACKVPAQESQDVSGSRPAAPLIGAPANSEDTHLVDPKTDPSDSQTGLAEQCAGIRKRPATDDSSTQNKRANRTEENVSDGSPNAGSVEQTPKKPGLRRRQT

- percent of CDK2/cyclin E complex bound [1]: 25%
- fold of cyclin E co-precipitated with p21 against that with p27 [2]: 3 fold
- percent of CDK2/cyclin E complex bound [2]: 75%
Substance: cyclin E (from UniProt P24864 1-410) (natural protein)
